Reference: patent US20220315633A1 (Janssen / Centocor, published 2022)

Molecular target: T1, human GDF15 receptor (GFRAL) stably over-expressed on SK-N-AS cells (human, UniProt Q6UXV0 19-394)
T1 sequence (looked up): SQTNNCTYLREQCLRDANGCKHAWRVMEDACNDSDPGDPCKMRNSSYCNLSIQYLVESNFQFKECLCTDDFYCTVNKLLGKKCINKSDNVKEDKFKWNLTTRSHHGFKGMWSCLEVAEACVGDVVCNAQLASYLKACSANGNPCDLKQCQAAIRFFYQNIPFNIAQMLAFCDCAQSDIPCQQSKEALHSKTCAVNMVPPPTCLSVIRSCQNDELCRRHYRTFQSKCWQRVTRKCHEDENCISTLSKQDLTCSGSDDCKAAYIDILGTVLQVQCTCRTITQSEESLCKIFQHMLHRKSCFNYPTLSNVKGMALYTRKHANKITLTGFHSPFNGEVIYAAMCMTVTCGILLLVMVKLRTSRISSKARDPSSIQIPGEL
Assay: cell-based or functional assay

B1: Native GDF15 (ligand, UniProt Q99988 197-308, looked up)
chain: ARNGDHCPLGPGRCCRLHTVRASLEDLGWADWVLSPREVQVTMCIGACPSQFRAANMHAQIKTSLHRLKPDTVPAPCCVPASYNPMVLIQKTDTGVSLQTYDDLLAKDCHCI
Q: Which “EC50, cell-based pAKT (phospho-AKT Ser473) assay” value does the source give for B1 here?
A: The value was 0.153 nM.
